Test results reported in PMC5453957, “Bartnicki Filip 1”.

Columns and labels:
R6-GST [1] = target: T1, R6-GST (synthetic construct, UniProt P08515 =RRRRRR+1-218, internal_change); experiment: pull-down; AS1 buffer; ITC: 50 mM phosphate pH 7.6, 207 mM NaCl, 25 C; pull-down: AS1 buffer (composition not given), 4 C, or ARGI buffer (50 mM Tris-HCl, 300 mM NaCl, 5 mM EDTA, 0.01% Tween 20, pH 7.5); settings: protein: recombinant; tags: N-terminal R6 (CPP tag under study); chain copies: 2; label: 5'-biotin (pull-down)
R6-PCNA = R6-PCNA (human, UniProt P12004 =RRRRRR+1-261, internal_change); experiment: as above; settings: protein: recombinant; tags: N-terminal R6; chain copies: 3; label: 5'-biotin (pull-down)
R6-PCNA, sequence (P12004 other isoform, or with tags, fused parts or gaps): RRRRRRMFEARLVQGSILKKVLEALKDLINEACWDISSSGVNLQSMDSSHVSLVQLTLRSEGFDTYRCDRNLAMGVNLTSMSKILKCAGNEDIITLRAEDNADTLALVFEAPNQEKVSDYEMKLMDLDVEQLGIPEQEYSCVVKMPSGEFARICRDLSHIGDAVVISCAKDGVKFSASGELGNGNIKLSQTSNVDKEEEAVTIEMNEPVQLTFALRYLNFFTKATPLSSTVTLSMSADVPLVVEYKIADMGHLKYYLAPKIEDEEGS

Tat49-57-PCNA = Tat49-57-PCNA (human, UniProt P12004 =MRKKRRQRRRGGGGGGHPW+1-261, internal_change); experiment: as above; settings: protein: recombinant; tags: N-terminal Tat49-57; chain copies: 3; label: 5'-biotin (pull-down)
Tat49-57-PCNA, sequence (P12004 other isoform, or with tags, fused parts or gaps): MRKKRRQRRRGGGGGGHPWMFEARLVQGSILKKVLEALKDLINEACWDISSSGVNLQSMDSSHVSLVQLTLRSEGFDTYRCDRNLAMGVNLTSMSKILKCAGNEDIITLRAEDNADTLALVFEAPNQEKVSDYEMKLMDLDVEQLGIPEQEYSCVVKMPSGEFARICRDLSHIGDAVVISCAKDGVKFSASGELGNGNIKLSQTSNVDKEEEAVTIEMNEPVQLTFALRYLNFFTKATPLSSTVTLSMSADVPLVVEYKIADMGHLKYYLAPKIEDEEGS

R6-GST [2] = target: T1, R6-GST; experiment: ITC; 25 C; n 2.61; Table 1 dG -35.8 kJ/mol would fit about 532 nM (R6/R8 possibly swapped); ITC: 50 mM phosphate pH 7.6, 207 mM NaCl, 25 C; pull-down: AS1 buffer (composition not given), 4 C, or ARGI buffer (50 mM Tris-HCl, 300 mM NaCl, 5 mM EDTA, 0.01% Tween 20, pH 7.5); settings: protein: recombinant; tags: N-terminal R6 (CPP tag under study); chain copies: 2; label: 5'-biotin (pull-down); four mfold structures predicted

Row | Binder | binding result (R6-GST [1]) | binding result (R6-PCNA) | binding result (Tat49-57-PCNA) | Kd (R6-GST [2])
1 | reference aptamer (ssDNA) DNA: CATGCTTCCCCAGGGAGATGACTGACTGACTGACTGACTGACTGACTGACTGACTGACTGGAGGAACATGCGTCGCAAAC | no binding | no binding | no binding | 
2 | 24-10 aptamer full length (ssDNA) DNA: CATGCTTCCCCAGGGAGATGGACGGCACGTCTTTGTAATTGGTTCTGAGTTCCGTTGTGGGAGGAACATGCGTCGCAAAC | binds | binds | binds | 
3 | CTTTGTAATTGGTTCTGAGTTCCGTTGTGGGAGGAACATG (ssDNA) [AR aptamer (24-10 nt 31-70; 5'/-30 and 3'/-10)] |  |  |  | 943 ± 37 nM
